Results: patent publication US11767359B2, “C3-binding agents and methods of use thereof” (NGM Biopharmaceuticals, Inc., priority 2018, dated 2023)
Positions count from the first letter of the chain named. Names and notes keep the numbering of the source. Each block holds one molecule with its values, some of them ahead of it.

Experiments:
C3c = C3c (Homo sapiens, UniProt P01024); experiment: Binding profile: binding to C3c; conditions: relative to the binding of the negative control mIgG2 antibody
Sequence of C3c (P01024 23-667 limits assumed): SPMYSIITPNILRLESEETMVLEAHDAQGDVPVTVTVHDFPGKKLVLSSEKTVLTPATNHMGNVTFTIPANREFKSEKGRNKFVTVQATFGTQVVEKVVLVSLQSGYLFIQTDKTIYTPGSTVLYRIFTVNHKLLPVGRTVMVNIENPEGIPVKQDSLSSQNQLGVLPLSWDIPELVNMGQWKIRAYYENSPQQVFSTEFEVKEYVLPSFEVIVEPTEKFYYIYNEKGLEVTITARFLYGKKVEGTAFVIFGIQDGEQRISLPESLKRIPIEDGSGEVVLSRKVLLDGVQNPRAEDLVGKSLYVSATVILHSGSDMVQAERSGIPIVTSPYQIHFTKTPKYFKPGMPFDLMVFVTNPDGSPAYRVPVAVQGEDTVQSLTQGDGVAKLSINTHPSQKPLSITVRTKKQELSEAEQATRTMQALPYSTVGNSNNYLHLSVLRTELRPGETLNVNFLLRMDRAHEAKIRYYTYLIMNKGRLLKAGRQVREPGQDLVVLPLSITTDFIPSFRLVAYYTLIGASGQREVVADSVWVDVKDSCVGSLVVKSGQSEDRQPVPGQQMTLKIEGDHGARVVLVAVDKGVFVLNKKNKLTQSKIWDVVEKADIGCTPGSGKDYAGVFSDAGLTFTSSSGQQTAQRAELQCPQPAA
Sequence of C3c (P01024 749-954 limits assumed): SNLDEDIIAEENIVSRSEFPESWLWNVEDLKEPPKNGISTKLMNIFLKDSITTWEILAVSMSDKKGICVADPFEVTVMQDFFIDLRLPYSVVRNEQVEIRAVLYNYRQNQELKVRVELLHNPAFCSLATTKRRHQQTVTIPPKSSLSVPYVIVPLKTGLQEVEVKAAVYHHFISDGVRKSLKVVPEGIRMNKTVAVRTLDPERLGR
Sequence of C3c (P01024 1321-1663 limits assumed): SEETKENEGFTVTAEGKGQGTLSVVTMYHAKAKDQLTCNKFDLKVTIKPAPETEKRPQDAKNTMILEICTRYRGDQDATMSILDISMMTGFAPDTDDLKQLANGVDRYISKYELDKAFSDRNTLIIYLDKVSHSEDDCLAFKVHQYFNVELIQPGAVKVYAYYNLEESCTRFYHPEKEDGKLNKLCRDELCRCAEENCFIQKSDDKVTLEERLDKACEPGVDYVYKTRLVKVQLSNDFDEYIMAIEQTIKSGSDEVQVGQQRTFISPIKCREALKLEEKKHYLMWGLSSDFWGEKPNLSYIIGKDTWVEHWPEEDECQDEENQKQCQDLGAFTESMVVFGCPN
From the text: (§1) The anti-C3 antibodies described herein were characterized for their ability to bind a number of other components of the complement cascade. Antibodies were screened for binding to C3, C3a, C3b, C3c, C3d, iC3b, and Factor Bb. All the anti-C3 antibodies included in Table 13 were able to block complement activation. The data are relative to the binding of the negative control mIgG2 antibody.

Factor Bb = Factor Bb (Homo sapiens, UniProt P00751); experiment: Binding profile: binding to Factor Bb; conditions: relative to the binding of the negative control mIgG2 antibody
Sequence of Factor Bb (P00751 260-764 limits assumed): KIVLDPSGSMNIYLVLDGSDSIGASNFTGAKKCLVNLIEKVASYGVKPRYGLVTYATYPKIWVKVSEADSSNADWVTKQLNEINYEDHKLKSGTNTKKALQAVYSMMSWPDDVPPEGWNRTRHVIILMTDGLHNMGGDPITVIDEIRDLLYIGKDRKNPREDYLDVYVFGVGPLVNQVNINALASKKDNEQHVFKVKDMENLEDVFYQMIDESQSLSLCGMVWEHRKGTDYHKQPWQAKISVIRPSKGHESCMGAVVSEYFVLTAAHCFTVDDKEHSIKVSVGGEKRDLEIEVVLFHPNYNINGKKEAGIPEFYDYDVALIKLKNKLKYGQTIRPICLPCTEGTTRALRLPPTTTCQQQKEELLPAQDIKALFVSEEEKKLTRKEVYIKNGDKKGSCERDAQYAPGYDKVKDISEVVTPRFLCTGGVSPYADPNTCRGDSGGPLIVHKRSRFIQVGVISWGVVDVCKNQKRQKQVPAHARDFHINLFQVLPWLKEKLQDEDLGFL
From the text: as §1

iC3b = iC3b (Homo sapiens, UniProt P01024); experiment: Binding profile: binding to iC3b; conditions: relative to the binding of the negative control mIgG2 antibody
Sequence of iC3b (P01024 23-667 limits assumed): as the sequence (P01024 23-667 limits assumed) above
Sequence of iC3b (P01024 749-1303 limits assumed): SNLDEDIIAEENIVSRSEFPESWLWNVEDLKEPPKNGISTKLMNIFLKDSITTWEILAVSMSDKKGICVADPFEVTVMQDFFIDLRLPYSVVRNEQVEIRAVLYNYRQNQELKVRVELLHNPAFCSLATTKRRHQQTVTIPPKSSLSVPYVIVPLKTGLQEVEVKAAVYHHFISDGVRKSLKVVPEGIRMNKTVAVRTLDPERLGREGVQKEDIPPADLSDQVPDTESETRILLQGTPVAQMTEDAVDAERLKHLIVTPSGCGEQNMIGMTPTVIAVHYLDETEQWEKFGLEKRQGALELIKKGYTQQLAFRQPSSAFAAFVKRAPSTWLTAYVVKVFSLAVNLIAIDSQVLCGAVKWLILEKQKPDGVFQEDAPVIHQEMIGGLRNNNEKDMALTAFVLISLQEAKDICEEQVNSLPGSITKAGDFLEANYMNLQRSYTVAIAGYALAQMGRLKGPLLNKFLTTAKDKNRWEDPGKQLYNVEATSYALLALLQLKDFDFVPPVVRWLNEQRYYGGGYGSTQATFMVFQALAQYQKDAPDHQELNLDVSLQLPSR
Sequence of iC3b (P01024 1321-1663 limits assumed): as the sequence (P01024 1321-1663 limits assumed) above
From the text: as §1

C3 [1] = target: T1, C3 (Homo sapiens, UniProt P01024); experiment: Binding affinity by Biacore, human C3
T1 sequence (P01024 23-1663): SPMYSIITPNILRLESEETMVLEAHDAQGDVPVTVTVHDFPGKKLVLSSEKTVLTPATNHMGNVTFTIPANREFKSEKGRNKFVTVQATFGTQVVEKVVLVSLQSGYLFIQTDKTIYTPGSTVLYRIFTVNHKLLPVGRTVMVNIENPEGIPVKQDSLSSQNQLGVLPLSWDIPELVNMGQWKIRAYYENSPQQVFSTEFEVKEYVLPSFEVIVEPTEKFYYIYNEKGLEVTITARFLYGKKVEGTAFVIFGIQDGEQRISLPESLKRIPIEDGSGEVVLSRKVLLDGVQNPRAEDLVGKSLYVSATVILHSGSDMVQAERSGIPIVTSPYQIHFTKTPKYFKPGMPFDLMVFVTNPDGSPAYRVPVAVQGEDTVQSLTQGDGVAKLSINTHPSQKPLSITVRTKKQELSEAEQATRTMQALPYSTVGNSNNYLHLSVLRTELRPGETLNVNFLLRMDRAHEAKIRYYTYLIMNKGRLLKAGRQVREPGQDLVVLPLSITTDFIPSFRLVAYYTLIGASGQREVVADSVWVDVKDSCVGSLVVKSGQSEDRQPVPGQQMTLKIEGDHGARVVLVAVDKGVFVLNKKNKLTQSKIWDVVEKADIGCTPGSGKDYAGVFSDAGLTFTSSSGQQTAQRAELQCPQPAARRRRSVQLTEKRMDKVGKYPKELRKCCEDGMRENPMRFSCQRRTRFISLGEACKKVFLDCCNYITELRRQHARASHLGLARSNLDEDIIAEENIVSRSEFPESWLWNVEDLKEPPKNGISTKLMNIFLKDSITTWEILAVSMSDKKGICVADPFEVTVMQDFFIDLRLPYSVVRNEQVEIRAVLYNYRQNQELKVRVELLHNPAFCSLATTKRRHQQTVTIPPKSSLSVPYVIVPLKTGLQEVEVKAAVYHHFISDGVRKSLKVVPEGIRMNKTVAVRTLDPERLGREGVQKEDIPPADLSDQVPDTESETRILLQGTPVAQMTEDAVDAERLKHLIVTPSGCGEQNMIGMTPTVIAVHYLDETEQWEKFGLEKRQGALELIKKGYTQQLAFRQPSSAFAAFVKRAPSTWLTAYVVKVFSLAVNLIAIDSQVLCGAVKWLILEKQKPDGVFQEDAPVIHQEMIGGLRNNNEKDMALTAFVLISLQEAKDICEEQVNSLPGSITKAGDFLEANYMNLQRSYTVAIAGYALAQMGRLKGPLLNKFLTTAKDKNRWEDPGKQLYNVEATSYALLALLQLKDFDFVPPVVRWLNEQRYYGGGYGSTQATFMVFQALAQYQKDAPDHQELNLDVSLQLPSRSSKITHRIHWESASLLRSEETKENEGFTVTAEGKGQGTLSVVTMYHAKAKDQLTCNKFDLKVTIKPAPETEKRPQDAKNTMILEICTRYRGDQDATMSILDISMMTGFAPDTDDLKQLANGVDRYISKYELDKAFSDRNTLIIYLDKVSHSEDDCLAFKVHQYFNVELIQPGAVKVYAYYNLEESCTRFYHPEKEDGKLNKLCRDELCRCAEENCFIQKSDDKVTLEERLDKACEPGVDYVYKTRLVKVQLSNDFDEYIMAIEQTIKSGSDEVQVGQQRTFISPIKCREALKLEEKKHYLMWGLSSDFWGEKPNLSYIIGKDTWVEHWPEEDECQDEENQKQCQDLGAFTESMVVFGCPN
Protocol: The binding affinities of exemplary anti-C3 antibodies to human C3 and cyno C3 were measured using a Biacore system (GE Healthcare LifeSciences). Briefly, anti-Fc antibody (Sigma-Aldrich) was immobilized on all four flow cells of a CM5 chip using amine coupling reagents (GE Healthcare LifeSciences). Antibodies were captured on flow cells 2, 3, and 4 using flow cell 1 as a reference. Concentrations ranging from 0.62-40 nM of human C3 or cyno C3 were injected at a flow rate of 50 μL/min at 37° C. Kinetic data were collected over time and fit using the simultaneous global fit equation to yield affinity constants (KD values) for each antibody.
More recently, a number of compstatin analogs and derivatives have been generated and studied. […] A Biacore system was used to assess the binding affinities of the different molecules to human C3. […] Evaluation of COMP or COMP-PEG binding to human C3 was carried out as follows. Human C3 was immobilized on flow cell 2 of a CM5 chip using amine-coupling reagents (GE Healthcare LifeSciences) and flow cell 1 (immobilized with a similar amount of human IgG) was used as a reference. […] Similar experiments were set up with COMP-PEG (concentration range of 25-400 nM) for evaluation at 37° C. COMP-PEG binding to human C3 was also evaluated at 25° C. with modifications. […]

[2] = Elevated pH stress test, deamidation at N55 of heavy chain CDR2; type: physicochemical
[3] = Solubility of Hz38G10 dsscFv by micro-concentration; type: physicochemical; conditions: 10 mM sodium phosphate, 40 mM sodium chloride, 0.03% polysorbate 20, 5% sucrose, pH 6.2
Protocol: The purified antibodies were dialyzed into buffer consisting of 10 mM sodium phosphate, 40 mM sodium chloride, 0.03% polysorbate 20, and 5% sucrose, pH 6.2. The solution was micro-concentrated using 10,000 Da NMWCO spin concentrator at 3,000×g at room temperature. Protein concentration was measured on an Agilent Cary 60 UV-VIS Solo VPE spectrophotometer.

C3 [4] = target: T1, C3; experiment: Binding profile: binding to C3; conditions: summary in words of Table 13
From the text: as §1

C3b = C3b (Homo sapiens, UniProt P01024); experiment: Binding profile: binding to C3b; conditions: relative to the binding of the negative control mIgG2 antibody
Sequence of C3b (P01024 23-667 limits assumed): as the sequence (P01024 23-667 limits assumed) above
Sequence of C3b (P01024 749-1663 limits assumed): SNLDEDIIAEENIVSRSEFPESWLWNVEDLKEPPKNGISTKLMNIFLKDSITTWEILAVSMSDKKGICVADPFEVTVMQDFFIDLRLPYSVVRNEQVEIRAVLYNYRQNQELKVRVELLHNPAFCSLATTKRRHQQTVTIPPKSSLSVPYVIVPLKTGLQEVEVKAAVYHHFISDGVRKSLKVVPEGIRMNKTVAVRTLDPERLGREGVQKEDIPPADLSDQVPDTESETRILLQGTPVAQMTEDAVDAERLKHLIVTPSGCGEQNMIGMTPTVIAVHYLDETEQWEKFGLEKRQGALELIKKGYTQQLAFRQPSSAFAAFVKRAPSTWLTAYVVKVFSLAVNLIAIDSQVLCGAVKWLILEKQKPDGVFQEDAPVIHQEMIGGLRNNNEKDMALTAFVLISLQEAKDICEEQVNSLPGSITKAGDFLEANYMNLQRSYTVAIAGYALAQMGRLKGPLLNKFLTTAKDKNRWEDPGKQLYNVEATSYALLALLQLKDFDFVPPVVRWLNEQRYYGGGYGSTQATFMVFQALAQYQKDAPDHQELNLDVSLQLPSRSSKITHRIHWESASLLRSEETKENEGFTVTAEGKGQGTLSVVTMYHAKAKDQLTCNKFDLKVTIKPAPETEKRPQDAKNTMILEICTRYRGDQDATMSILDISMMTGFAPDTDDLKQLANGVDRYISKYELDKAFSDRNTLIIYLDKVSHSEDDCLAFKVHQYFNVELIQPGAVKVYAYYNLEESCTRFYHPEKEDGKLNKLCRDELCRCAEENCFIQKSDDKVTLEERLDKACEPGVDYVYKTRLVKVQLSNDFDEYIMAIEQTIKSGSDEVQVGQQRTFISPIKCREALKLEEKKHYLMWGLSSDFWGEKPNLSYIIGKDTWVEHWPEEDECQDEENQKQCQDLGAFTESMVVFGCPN
From the text: as §1

B1: 63A3: mouse anti-C3 monoclonal antibody; VH SEQ ID NO:107, VL SEQ ID NO:108 (antibody, V domains shown)
VH: DVQLQESGPGLVKPSQSLSLTCSVTGYSITSGYYWNWIRQFPGNKLEWMGYIRYDGSNNYNPSLKNRISITRDTSKNQVFLKLNSVTPEDTATYYCARHYGYDGGAFDFWGQGTTLTVSS
VL: DIQMTQSPASLSASVGETVTITCRTSENIYNYLVWYQQKQGKSPQLLVYNAKTLEEGVPSRFSGSGSGTQFSLKVNSLQPEDFGSYYCQHHYGTPFTFGSGTKLEIK
binding to C3c (C3c): 0.55
binding to Factor Bb (Factor Bb): 0.00
binding to iC3b (iC3b): 0.72

B6: Hz38G10 (G56A): Hz38G10 variant with G56A mutation in heavy chain CDR2; VH SEQ ID NO:21, VL SEQ ID NO:25 (antibody, V domains shown)
VH: QVQLVQSGAEVKKPGASVKVSCKASGYTFTDFYMDWVRQAPGQRLEWMGYIYPHNAGTTYNQQFTGRVTITVDKSASTAYMELSSLRSEDTAVYYCARRGGFDFDYWGQGTLVTVSS
VL: DIQMTQSPSSLSASVGDRVTITCKASENVDTYVSWYQQKPGKAPKLLIYGASNRYTGVPSRFSGSGSGTDFTFTISSLQPEDIATYHCGQSHSYPLTFGQGTKLEIK
deamidation at the asparagine N55, Day 0 ([2]; pH 8.5, Day 0): 0.66%
deamidation at the asparagine N55, Day 7 ([2]; pH 8.5, Day 7): 1.0%

B7: Hz38G10 dsscFv: VL-linker-VH disulfide-linked scFv of Hz38G10, SEQ ID NO:113 (protein)
scFv: MDIQMTQSPSSLSASVGDRVTITCKASENVDTYVSWYQQKPGKAPKLLIYGASNRYTGVPSRFSGSGSGTDFTFTISSLQPEDIATYHCGQSHSYPLTFGCGTKLEIKGGGGSGGGGSGGGGSQVQLVQSGAEVKKPGASVKVSCKASGYTFTDFYMDWVRQAPGQCLEWMGYIYPHNGGTTYNQQFTGRVTITVDKSASTAYMELSSLRSEDTAVYYCARRGGFDFDYWGQGTLVTVSS
protein concentration reached with no visible aggregation [3]: 229 mg/mL

B8: 62F2: mouse anti-C3 monoclonal antibody; VH SEQ ID NO:105, VL SEQ ID NO:106 (antibody, V domains shown)
VH: DVQLQESGPDLVKPSQSLSLTCTVTGYSITSGYSLHWIRQFPGNKLEWMGYIHYSGSTNYNPSLKSRISITRDTSKNQFFLKLNSVTSEDTATYHCARAWDYLDYWGQGTTLTVSS
VL: DIQMTQSPASLSASVGETVTITCRASENIYSQLAWYQQKQGKSPQLLVYDAKTLAEGVPSRFSGSGSDTQFSLKIISLQPEDFGRYYCHHHFGILYTFGGGTKLEMK
binding to C3c (C3c): 0.43
binding to Factor Bb (Factor Bb): 0.00
binding to iC3b (iC3b): 0.49

B10: 38G10: mouse anti-C3 monoclonal antibody; VH SEQ ID NO:18, VL SEQ ID NO:19 (antibody, V domains shown)
VH: EVQLQQSGPELVKPGDSVKMSCKASGYTFTDFYMDWVKQSHGKSLEWIGYIYPHNGGTTYNQNFTGKATLTVDKSSNTAYMELHSLTSEDSAVYYCARRGGFDFDYWGQGTTLTVSS
VL: NIVMTQSPKSMSLSVGERVTLRCKASENVDTYVSWYQQKPEQSPKLLIYGASNRYTGVPDRFTGSGSATEFTLTISSVQAEDLVGYHCGQSHSYPLTFGAGTKLELK
binding to C3c (C3c): 0.13
C3 binding profile (C3 versus fragments of the complement cascade) (C3 [4]): bound preferentially to C3 with no detectable or very limited binding to any of the fragments of the complement cascade
binding to C3b (C3b): 0.06
binding to iC3b (iC3b): 0.06

More lines, now with the values ahead:

binding to C3c (C3c): 0.17
binding to iC3b (iC3b): 0.29
B2: 3D8: mouse anti-C3 monoclonal antibody; VH SEQ ID NO:91, VL SEQ ID NO:92 (antibody, V domains shown)
VH: EIQLQQSGAELVKPGASVKISCKASGYSFTGYNMNWVKQSHGKSLEWIGNINPYYGSTNYNQKFKGKATLTVDKSSTTAYMQLDSLTSEDSAVYYCARGYYGGNYPFAYWGQGTLVTVSA
VL: B1 VL with T25A, N31S, V34A, E55A, V75I, H91Y, F96Y, S100G, T102S, L104V

binding to C3c (C3c): 0.22
binding to iC3b (iC3b): 0.25
B3: 3G8: mouse anti-C3 monoclonal antibody; VH SEQ ID NO:93, VL SEQ ID NO:94 (antibody, V domains shown)
VH: EIQLQQSGAELVKPGASVKISCMASGYSFTGYNMNWVKQSHGKGLEWIGNINPYYDSTSYNQKFKGKATLTVDKSSSTAYMQLNSLTSEDSAVYYCARENYDFVGFAYWGQGTLVTVSA
VL: QIVLSQSPAILSASPGEKVTMTCRASSSVSYMHWFQQKPGSSPKPWIYVTSNLASGVPPRFSGSGSGTSYSLTISRVEAEDAATYYCQQWSTNPLTFGAGTKLELK

binding to C3c (C3c): 0.45
binding to iC3b (iC3b): 0.45
B4: 38F5: mouse anti-C3 monoclonal antibody; VH SEQ ID NO:101, VL SEQ ID NO:102 (antibody, V domains shown)
VH: EVMLVESGGALVKPGGSLKLSCTASGFTFSNYAMSWVRQTPEKRLEWVAQTISSGGRYTYYPDSVKGRFTISRDNARNTLYLQMSSLRSEDTAMYYCVRRYYGNSYWYFDVWGAGTTVTVSS
VL: DIVMTQSPSSLSVSAGEKVTMNCKSSQSLLNSGNQKHYLTWYQQKPGQPPKLLIYGASTRGSGVPDRFTGSGSGTDFTLTISSVQAEDLAVYYCQNDHSYPYTFGGGTKLEIK

binding to human C3 as compared to Hz38G10 (C3 [1]): reduced binding
B5: Hz38G10(N55D): Hz38G10 variant with N55D mutation in heavy chain CDR2, mimics a fully deamidated molecule (antibody, V domains shown)
VH: B6 VH with N55D, A56G
VL: B6 VL

binding to C3c (C3c): 0.28
binding to Factor Bb (Factor Bb): 0.00
B9: 28C3: mouse anti-C3 monoclonal antibody; VH SEQ ID NO:99, VL SEQ ID NO:100 (antibody, V domains shown)
VH: QVQLQQSGPELVKPGASVKISCKASGYAFNSCWMNWVKQRPGKGLEWIGRIYPGDGDTNYNGKFKGKATLTADKSSTTAYMQLSSLTSEDSAVYFCAREGRNYGYEDYWGQGTTLTVSS
VL: DIVLTQSPASLAVSLGQRATISCKASQSVDYDGDSYMNWYQQKPGQPPKLLIYAASDLESGIPARFSGSGSGTDFTLNIHPVEEEDAATYYCQQANEDPRTFGGGTKLEIK
